Laboratory results: ChEMBL document CHEMBL4828702, “Identification of Novel High-Affinity Substrates of OCT1 Using Machine Learning-Guided Virtual Screening and Experimental Validation” (J Med Chem, 2021)

How the values were obtained:
OCT1 = test: Ratio of drug uptake in human OCT1 expressing HEK293 cells at 2.5 uM to drug uptake in empty vector transfected human HEK293 cells at 2.5 uM; format: ADME, cell-based
[1] = target: Solute carrier family 22 member 1 (Homo sapiens) (UniProt O15245); test: Substrate activity at human OCT1 expressed in HEK293 cells assessed as increase in compound uptake by measuring intrinsic clearance incubated for 2 mins by LC-MS/MS analysis
Solute carrier family 22 member 1 (Homo sapiens), sequence (O15245 whole entry, looked up): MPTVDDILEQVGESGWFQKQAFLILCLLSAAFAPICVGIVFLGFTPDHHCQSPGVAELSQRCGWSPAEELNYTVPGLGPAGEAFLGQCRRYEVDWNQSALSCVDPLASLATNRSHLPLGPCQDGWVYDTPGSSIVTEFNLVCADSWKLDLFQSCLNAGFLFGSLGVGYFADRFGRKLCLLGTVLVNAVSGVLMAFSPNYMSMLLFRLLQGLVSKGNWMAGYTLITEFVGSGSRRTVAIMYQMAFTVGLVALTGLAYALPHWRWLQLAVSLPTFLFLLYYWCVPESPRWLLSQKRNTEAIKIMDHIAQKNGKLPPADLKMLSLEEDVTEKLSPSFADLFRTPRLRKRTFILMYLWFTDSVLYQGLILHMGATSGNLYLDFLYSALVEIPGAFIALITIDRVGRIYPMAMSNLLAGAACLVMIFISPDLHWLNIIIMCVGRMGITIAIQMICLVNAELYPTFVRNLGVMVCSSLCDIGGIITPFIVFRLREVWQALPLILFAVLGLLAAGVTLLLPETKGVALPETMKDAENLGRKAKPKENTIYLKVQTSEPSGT

[2] = substrate: CC(C)NCC(O)c1ccc(NS(C)(=O)=O)cc1; test: (§1) Substrate activity at human OCT1 expressed in HEK293 cells assessed as increase in compound uptake by measuring Km incubated for 2 mins by LC-MS/MS analysis; format: cell-based
[3] = substrate: CC(C)NC[C@H](O)COc1ccc(O)cc1; test: as §1; format: cell-based
[4] = substrate: CC(CCc1ccc(O)cc1)NCC(O)c1ccc(O)cc1; test: as §1; format: cell-based
[5] = substrate: CC(CCc1ccc(O)cc1)NCCc1ccc(O)c(O)c1; test: as §1; format: cell-based
[6] = substrate: CC(NCCc1ccc(O)cc1)C(O)c1ccc(O)cc1; test: as §1; format: cell-based
[7] = substrate: CCN(CC)C(=O)C1(c2ccccc2)CC1CN; test: as §1; format: cell-based
[8] = substrate: CCN(CC)CCNC(=O)c1ccc(NS(C)(=O)=O)cc1; test: as §1; format: cell-based
[9] = substrate: CC[N+](C)(C)c1cccc(O)c1; test: as §1; format: cell-based
[10] = substrate: CC[N+](CC)(CC(=O)Nc1c(C)cccc1C)Cc1ccccc1; test: as §1; format: cell-based
[11] = substrate: CC[N+](CC)(CC)Cc1ccccc1; test: as §1; format: cell-based
[12] = substrate: CNC[C@H](O)c1cccc(O)c1; test: as §1; format: cell-based
[13] = substrate: CN[C@@H]1CCc2[nH]c3ccc(C(N)=O)cc3c2C1; test: as §1; format: cell-based
[14] = substrate: C[N+]1(C)CCN(c2ccccc2)CC1; test: as §1; format: cell-based
[15] = substrate: C[N+]1(C)[C@@H]2C[C@H](OC(=O)[C@H](CO)c3ccccc3)C[C@H]1[C@@H]1O[C@@H]12; test: as §1; format: cell-based
[16] = substrate: C[N+]1(CCC(C(N)=O)(c2ccccc2)c2ccccc2)CCCCC1; test: as §1; format: cell-based
[17] = substrate: N=C(N)NC(=O)Cc1c(Cl)cccc1Cl; test: as §1; format: cell-based
[18] = substrate: N=C(N)NCc1cccc(I)c1; test: as §1; format: cell-based
[19] = substrate: NC(N)=Nc1nc(CSCC/C(N)=N/S(N)(=O)=O)cs1; test: as §1; format: cell-based
[20] = substrate: NCC(O)c1ccc(O)cc1; test: as §1; format: cell-based
[21] = substrate: NCC(O)c1cccc(O)c1; test: as §1; format: cell-based
[22] = substrate: Nc1ccncc1N; test: as §1; format: cell-based
[23] = substrate: CC(C)NCC(O)c1ccc(NS(C)(=O)=O)cc1; test: (§2) Substrate activity at human OCT1 expressed in HEK293 cells assessed as increase in compound uptake by measuring Vmax incubated for 2 mins by LC-MS/MS analysis; format: cell-based
[24] = substrate: CC(C)NC[C@H](O)COc1ccc(O)cc1; test: as §2; format: cell-based
[25] = substrate: CC(CCc1ccc(O)cc1)NCC(O)c1ccc(O)cc1; test: as §2; format: cell-based
[26] = substrate: CC(CCc1ccc(O)cc1)NCCc1ccc(O)c(O)c1; test: as §2; format: cell-based
[27] = substrate: CC(NCCc1ccc(O)cc1)C(O)c1ccc(O)cc1; test: as §2; format: cell-based
[28] = substrate: CCN(CC)C(=O)C1(c2ccccc2)CC1CN; test: as §2; format: cell-based
[29] = substrate: CCN(CC)CCNC(=O)c1ccc(NS(C)(=O)=O)cc1; test: as §2; format: cell-based
[30] = substrate: CC[N+](C)(C)c1cccc(O)c1; test: as §2; format: cell-based
[31] = substrate: CC[N+](CC)(CC(=O)Nc1c(C)cccc1C)Cc1ccccc1; test: as §2; format: cell-based
[32] = substrate: CC[N+](CC)(CC)Cc1ccccc1; test: as §2; format: cell-based
[33] = substrate: CNC[C@H](O)c1cccc(O)c1; test: as §2; format: cell-based
[34] = substrate: CN[C@@H]1CCc2[nH]c3ccc(C(N)=O)cc3c2C1; test: as §2; format: cell-based
[35] = substrate: C[N+]1(C)CCN(c2ccccc2)CC1; test: as §2; format: cell-based
[36] = substrate: C[N+]1(C)[C@@H]2C[C@H](OC(=O)[C@H](CO)c3ccccc3)C[C@H]1[C@@H]1O[C@@H]12; test: as §2; format: cell-based
[37] = substrate: C[N+]1(CCC(C(N)=O)(c2ccccc2)c2ccccc2)CCCCC1; test: as §2; format: cell-based
[38] = substrate: N=C(N)NC(=O)Cc1c(Cl)cccc1Cl; test: as §2; format: cell-based
[39] = substrate: N=C(N)NCc1cccc(I)c1; test: as §2; format: cell-based
[40] = substrate: NC(N)=Nc1nc(CSCC/C(N)=N/S(N)(=O)=O)cs1; test: as §2; format: cell-based
[41] = substrate: NCC(O)c1ccc(O)cc1; test: as §2; format: cell-based
[42] = substrate: NCC(O)c1cccc(O)c1; test: as §2; format: cell-based
[43] = substrate: Nc1ccncc1N; test: as §2; format: cell-based

## CC(CCc1ccc(O)cc1)NCC(O)c1ccc(O)cc1 (stereo unspecified) [RACTOPAMINE]
OCT1
  uptake ratio at 2.5 µM: 7.1
[1]
  clearance: 111 mL/min/g

## CC(NCCc1ccc(O)cc1)C(O)c1ccc(O)cc1 (stereo unspecified) [RITODRINE]
OCT1
  uptake ratio at 2.5 µM: 7.6
[1]
  clearance: 104 mL/min/g

## NCC(O)c1cccc(O)c1 (stereo unspecified) [NORFENEFRINE]
OCT1
  uptake ratio at 2.5 µM: 2.1
[1]
  clearance: 4.6 mL/min/g

## CC(C)NC[C@H](O)COc1ccc(O)cc1 [PRENALTEROL]
OCT1
  uptake ratio at 2.5 µM: 5.3
[1]
  clearance: 12.4 mL/min/g

## CN[C@@H]1CCc2[nH]c3ccc(C(N)=O)cc3c2C1 [FROVATRIPTAN]
OCT1
  uptake ratio at 2.5 µM: 33.1
[1]
  clearance: 50.3 mL/min/g

## CNC[C@H](O)c1cccc(O)c1 [PHENYLEPHRINE]
OCT1
  uptake ratio at 2.5 µM: 10.6
[1]
  clearance: 17.3 mL/min/g

## CC[N+](C)(C)c1cccc(O)c1 [EDROPHONIUM]
OCT1
  uptake ratio at 2.5 µM: 42.6
[1]
  clearance: 99.5 mL/min/g

## CC[N+](CC)(CC(=O)Nc1c(C)cccc1C)Cc1ccccc1 [DENATONIUM]
OCT1
  uptake ratio at 2.5 µM: 21.6
[1]
  clearance: 71.4 mL/min/g

## C[N+]1(CCC(C(N)=O)(c2ccccc2)c2ccccc2)CCCCC1
OCT1
  uptake ratio at 2.5 µM: 30.9
[1]
  clearance: 114 mL/min/g

## CC(CCc1ccc(O)cc1)NCCc1ccc(O)c(O)c1 (stereo unspecified) [DOBUTAMINE]
OCT1
  uptake ratio at 2.5 µM: 14.7
[1]
  clearance: 5.2 mL/min/g

## N=C(N)NCc1cccc(I)c1 [IOBENGUANE]
OCT1
  uptake ratio at 2.5 µM: 10.1
[1]
  clearance: 3160 mL/min/g

## N=C(N)NC(=O)Cc1c(Cl)cccc1Cl [GUANFACINE]
OCT1
  uptake ratio at 2.5 µM: 4.3
[1]
  clearance: 138 mL/min/g

## NC(N)=Nc1nc(CSCC/C(N)=N/S(N)(=O)=O)cs1
[1]
  clearance: 87.4 mL/min/g

## NCC(O)c1ccc(O)cc1 (stereo unspecified)
[1]
  clearance: 9.1 mL/min/g

## CCN(CC)CCNC(=O)c1ccc(NS(C)(=O)=O)cc1 [SEMATILIDE]
OCT1
  uptake ratio at 2.5 µM: 3.5
[1]
  clearance: 3.3 mL/min/g

## Nc1ccncc1N [AMIFAMPRIDINE]
OCT1
  uptake ratio at 2.5 µM: 6.8
[1]
  clearance: 18.8 mL/min/g

## C[N+]1(C)CCN(c2ccccc2)CC1 [DIMETHYLPHENYLPIPERAZINIUM]
OCT1
  uptake ratio at 2.5 µM: 38.9
[1]
  clearance: 47.2 mL/min/g

## CC[N+](CC)(CC)Cc1ccccc1
OCT1
  uptake ratio at 2.5 µM: 67.5
[1]
  clearance: 62.8 mL/min/g

B1: POU domain, class 2, transcription factor 1 (Homo sapiens), P14859 (protein)
chain: MNNPSETSKPSMESGDGNTGTQTNGLDFQKQPVPVGGAISTAQAQAFLGHLHQVQLAGTSLQAAAQSLNVQSKSNEESGDSQQPSQPSQQPSVQAAIPQTQLMLAGGQITGLTLTPAQQQLLLQQAQAQAQLLAAAVQQHSASQQHSAAGATISASAATPMTQIPLSQPIQIAQDLQQLQQLQQQNLNLQQFVLVHPTTNLQPAQFIISQTPQGQQGLLQAQNLLTQLPQQSQANLLQSQPSITLTSQPATPTRTIAATPIQTLPQSQSTPKRIDTPSLEEPSDLEELEQFAKTFKQRRIKLGFTQGDVGLAMGKLYGNDFSQTTISRFEALNLSFKNMCKLKPLLEKWLNDAENLSSDSSLSSPSALNSPGIEGLSRRRKKRTSIETNIRVALEKSFLENQKPTSEEITMIADQLNMEKEVIRVWFCNRRQKEKRINPPSSGGTSSSPIKAIFPSPTSLVATTPSLVTSSAATTLTVSPVLPLTSAAVTNLSVTGTSDTTSNNTATVISTAPPASSAVTSPSLSPSPSASASTSEASSASETSTTQTTSTPLSSPLGTSQVMVTASGLQTAAAAALQGAAQLPANASLAAMAAAAGLNPSLMAPSQFAAGGALLSLNPGTLSGALSPALMSNSTLATIQALASGGSLPITSLDATGNLVFANAGGAPNIVTAPLFLNPQNLSLLTSNPVSLVSAAAASAGNSAPVASLHATSTSAESIQNSLFTVASASGAASTTTTASKAQ
[2]
  Km: 196 µM
[3]
  Km: 13.3 µM
[4]
  Km: 2.1 µM
[5]
  Km: 28.4 µM
[6]
  Km: 1.67 µM
[7]
  Km: 2.26 µM
[8]
  Km: 102 µM
[9]
  Km: 26.4 µM
[10]
  Km: 12.6 µM
[11]
  Km: 38.6 µM
[12]
  Km: 221 µM
[13]
  Km: 61.9 µM
[14]
  Km: 62 µM
[15]
  Km: 23.4 µM
[16]
  Km: 8.6 µM
[17]
  Km: 8.6 µM
[18]
  Km: 15.9 µM
[19]
  Km: 35.7 µM
[20]
  Km: 389 µM
[21]
  Km: 994 µM
[22]
  Km: 508 µM
[23]
  Vmax: 2760 pmol/mg/min
[24]
  Vmax: 165 pmol/mg/min
[25]
  Vmax: 234 pmol/mg/min
[26]
  Vmax: 147 pmol/mg/min
[27]
  Vmax: 173 pmol/mg/min
[28]
  Vmax: 340 pmol/mg/min
[29]
  Vmax: 338 pmol/mg/min
[30]
  Vmax: 2630 pmol/mg/min
[31]
  Vmax: 902 pmol/mg/min
[32]
  Vmax: 2420 pmol/mg/min
[33]
  Vmax: 3820 pmol/mg/min
[34]
  Vmax: 3110 pmol/mg/min
[35]
  Vmax: 2930 pmol/mg/min
[36]
  Vmax: 1210 pmol/mg/min
[37]
  Vmax: 971 pmol/mg/min
[38]
  Vmax: 1180 pmol/mg/min
[39]
  Vmax: 5030 pmol/mg/min
[40]
  Vmax: 3120 pmol/mg/min
[41]
  Vmax: 3540 pmol/mg/min
[42]
  Vmax: 4550 pmol/mg/min
[43]
  Vmax: 9570 pmol/mg/min
